The domain aggregation screens of Martell et al. (2025)

Test: soluble fraction after stress (log2 fold change); higher = more stays soluble; pooled small domains, quantitative proteomics
Conditions: stress: pH 4
Method in brief: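 Values are on a log2 scale, where higher means more of the domain stayed soluble after pH 4 stress. They are fold changes in the soluble amount of each domain from pooled custom libraries, measured by high-throughput quantitative proteomics. The fold change is taken to reflect aggregation propensity.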

Row | Sequence | soluble fraction (log2)
1 | HMNVPFGYTIKDGLLVEQPDEKAILDNILTWKKGQMTVAEIAKKTGMETWKIYGILNYWRNK | -0.438
2 | HMNVRAYKVSKESELTVEEKLEAVRGYGVADLLYVIREFEENPGKYEPEVIKLIVQQLTDKGIM | -0.94
3 | HMNVRRSRTHEKVTTYQGYDIFINKEPNQRGMFTSAPMRGDNEYSNLRGEGKSKQDAVNMTKEKIDEIAA | 0.229
4 | HMNVSVSITKELQVYINDERISSSALESTLKSKLAGIENPTIILRAEEGVPIEKAVNVMDIANRNRYKIVL | -0.969
5 | HMNVYAGTMINVVGLQVEDAASRLRGLFYSVKIVEEESQEPDGKVLRQNIAEGTKDLEAWTLVELTVSKYV | -0.448
6 | HMNVYEVKFGDTLDEIIKTYLFDIPVKKSILRQAVILANPHAFRRNNPHWMYSDRQLKLPELQDIRRAIF | -0.74
7 | HMNYGDVIEGQIMHVDRDELLVDIGSKSEGIIPAREFSTLTDEERAALSVGDHVLVFVVQAENQEGQAV | 0.0111
8 | HMNYIEWKNTFKKYLYLLPIKEEKETLAYFDEQYNKLNPKDLDNVENIFSDPIDKAAFVVAFYLEMEDEIK | -0.802
9 | HMNYIGADAAKNMAAADAQVDTANASFSGANLGEKNGLSYYQVDFTANGREYHYAIDAMTGTVIESSSAAS | -0.0522
10 | HMNYNEKGEYTRTLTSGSETAVMTYRNFGETLDVALFKNGVQTDSLRLIKSEPGVLYRQSNGQFEKI | -0.0181
11 | HMNYSIVNVGFNNKSLFLRSAPGYSASRLLLPFATERAFVRETLSNGWSRVIVRGTEGYLPTEYVAD | -0.553
12 | HMNYSKQRETILKVLRSTRSHPSVNWIYENVKKEIPDVGLATVYRNLKQLEAAGEIMRIQGDFPEERWDGF | -0.587
13 | HMNYTALLNNFSENMKKRRVELSLSQKELASIVGVSVRTIQNYENKKTIPTSAVMESISIALDMGLEKMID | 0.04
14 | HMNYTQAQIDRANAVSLEDFLRTQGETLIKSGREYRWKEHDSLTVRGNKWFRHSQSKGGYPIDFVMEFTA | -0.0561
15 | HMNYYYKDNQYWYVGFRYDERLVKEIKRFVGAGYNPENKEWYIPFTLPTVAPLQKWLHDNGFVEGMNYYP | -1.31
16 | HMPAAFALLTDREREIAALIAQRLTNREIAEKLYLSEGSVKQYVNQLYAKLGIEGDTRTKRRRLAEQAK | 0.12
17 | HMPAAKARTWQEATHAFQRDFLLETLRRARFNAADAADQLGLARPALYTTAKRLGLDLVAERQRWEAEAH | 0.043
18 | HMPAAPVFLQKDLLDAGLIGQADSAARREKLGKILGIGYGNGKVMLQRLNSFGIERDAFEQAVQE | -0.195
19 | HMPAASDALAGELAQIARLDIAKLLAGDLSEADWSRITSATVQLSERHPDASDELTALVERIDTAYSARAT | -1.32
20 | HMPAEGWEASGDTWRYRQKDGSYITNAWVQDTDGKWYYFDESSLMVRNQTTSDGYYVGEDGVWTET | -1.83
21 | HMPAELGVVVRNANLRSGPGTKYAIVGSAPAGTTVRIAGTNKAGDWYHLSSGRWIAAFLVDRN | 0.34
22 | HMPAERLSMRKIYEILRLKYGHGLSNREVALSVSVSRSTVADYLLRAQAAGLSWPLPDGLDETGLEQRLFP | -0.572
23 | HMPAFGALTLRQRDLVELIAQGLDNSQIAARLGLAEKTVRNHITMIFNKLEMENRSQVIVRARESGFGAVR | -0.228
24 | HMPAKIIKKSFVYNPIHRDTEYLAQFLQGEGQVSASGDKLVYYGTVEDISRIKSVLQSVDTPS | -0.434
25 | HMPALATKDSVLDGRAEVVSYVRDTSVFYLRVRVPQKQGYRSRRIDGVSTLPEAITKALDTYMDLGT | -1.02

Row | Sequence | soluble fraction (log2)
26 | HMPALELLVESKKPLLIHGEKIAEDINLFDREKYFIDDELIRIVKEFPSLKIILEHVSSKYGAD | -1.59
27 | HMPAMYKAERMNQILSILADQGDVDVGTLARQFGVSLVTIRKDLTYLESSGQLVRTHGGAIAVA | -0.26
28 | HMPASVEYIRLAAEQMTGQQVTIIEQPGNYAFILRIHLNDIYSLDLAALRARIDELKPAHLTYTVEQYD | -1.85
29 | HMPATTMMVVVDRDLPYGHVLTDRDVRLETRRATSPGASVAFTSIDPVLGQSLTRPLGAGTPVGRADLR | -0.151
30 | HMPAVVEFDVKPRGEVLVDGIWYGRIPELREVELRPGRHHLRVQNAGHPSLDLVVTLEPGERMTVTHTFA | -0.33
31 | HMPDAENFRYRVPYTTEQNRLQYYEGDIRAENADKARDQVMQDAQKYFAQNTAFTPNYIDTDIISLD | -0.615
32 | HMPDFAENAVYGKQREDSLYAHAYKHFQLGDTTTVRAAEHLSAEIYPLGQHRPKFMFLNAVTR | 0.22
33 | HMPDITAAVARTLQALRADRGWSLDQLAARSGVSKGVLVALEQGRSNPNLATLARIGDAFGVPVTLLVDL | -0.196
34 | HMPDPHSEARNIVLNQLNFMPRSRKELETALAKRNIEADVAKIVLDRFEEIGMVDDAAYAEL | -1.2
35 | HMPDPLYLINGKIVNKSDFNNIDPRSIQSIEVLKANKALEAFGNDGKNGVIKITLKSSNDQM | 0.22
36 | HMPEEGPSEDGNSFTAKFKLGSDVQGAMEQADAAAKAGLQDAGKGTGQITSRAQVGGYIYSTATA | 0.22
37 | HMPEIFYRKIHRTDHDQIALDAEMIRLLIAIDEKKSLSQIAAEVQMEPMALKKNLGKLIQLGLVEPIK | -0.179
38 | HMPELSNNLDRDKVALKNFNESLKDGLTPAEAYANHLTNVSKAAQEAARQSNGLPVDIDKYHNSQLAASMA | ≥ 0.43
39 | HMPEMAIRTLRLRNQRGAAVAAEWSRITASLLELRQVEFVNPVDQLIVLKGPEPWAGVAEELVRQLDV | -1.02
40 | HMPEQLLNTRIPLEFAGRRFDASLAELFPDYSRSRLAAWIKDGAARLDGETVAPRHTVRGGEQVEILVRM | -0.13
41 | HMPERLTYVHPDGAEPMRADKALAAFLSGRISRSRLLGSFSAGKVMAGGKPVEKKLLLRAGDALEVELPEP | 0.0894
42 | HMPERMLEPLLNGNEIMKVTQLQPGPKVGLIRDALLQAQISGDVTDTESAKAFVQDYAKRNI | 0.386
43 | HMPESETIMVDVKGAVQSEGVYELPSTARVNDAIEAAGGFSDQADKKSVNLAQKLSDEAVVYVASQGENV | -0.28
44 | HMPEVTMSYSARNQVVSFSKATQYEIVDEFGTVVLRGVGNQATLRYLSRGDYFVNFGAGTEVLKK | 0.089
45 | HMPEVYSFEVNEGAAGKRLDIFLSGEIEGLTRSFIQKLISEGMATVNQEPPRASYRVKTRDLVELQIPDPE | -0.309
46 | HMPFDWSAFDWKGWADEALAIIKTANQDQMNKWTEDNEKIIVQAETAAPDIYKTVGDEYDKKMESFN | 0.0448
47 | HMPFESEMKHWIHLFAHELNLKVSDKYTQKIIEIFGNNFSEIFNEMSKSSLVSSNEKDLLNALEKSGNIH | -0.862
48 | HMPFGIYGGKVSSLDDLKDKAAVLVPNDVSNEARALLLLEAQGLIKLKEGVGLEATRNDIVEN | -0.0596
49 | HMPFTLDGVNEGSRNDQAARMSGYLISKNLNMDFIKFFMQSWNRQNSPPLSQREINSVVDNVKRTHDRKNK | -0.697
50 | HMPGKVSDAGATAKDNRLFLEAVFWRVRTGSPWRDLPPAFGHWNSQFRRFRRWAKAGVFESLFNA | 0.179

Row | Sequence | soluble fraction (log2)
51 | HMPGRKKLAIIYKNDYIGAFNLADSYRDSYEVSMYAFPKKVGKLLNRLELQGFNAYVIYDKDNEENNFNTI | 0.00545
52 | HMPGSGELSRRLELAIRDRTAVRVTAAAAGQERSFTLLPVAITSGRLRATDEQAGVQRTLPLSAIVAVEA | -0.135
53 | HMPGTEAQDGEVLLDALRRIHPDSSTGTLRRMLTQGRVQVDGTTVHAAKAELTSGQHVEVVAR | -0.0746
54 | HMPIDIEPVLQWIRDNSIDGIGPARSMYHSAAAAAGLPSYSSLQLRKWTWPLLLDAAGVQRR | -0.265
55 | HMPIRMLQVQKTNTGYLNVRDTPSVSGALIGKVFPGDMLSSTEERDGWFLVAVPQGGTGWVSGDYVKTTS | 0.0778
56 | HMPKAPHETLSRREMEVLLLLSEGVTLTRIGDTIHVSVKTVSTYRARILQKLDLQSNAELTRYVLQHKL | ≥ 0.43
57 | HMPKHDWDAFAGAIARRVHDHGMPVSQGELVRDMMDWFAGRKDFPPPDERTVRRKVSAIWRELNG | -0.292
58 | HMPKIPRLTLTETAGIMGVSQRALALAIQQGMYSWAQALPGRNKKRPIYFINAITFAKAQGIDLEEYK | -0.529
59 | HMPKKLIWERTTSKLQLYITQDRYELKTPLMTIPFTSKSKMMVYLQQRYHLDMQEYRQIYDAG | 0.0815
60 | HMPKMDGLTVMEQVNQDHFVNKRPYFIVITAVGQEKITEDAFNKGANYYVMKPFNNNMLLERIKSVRK | 0.0916
61 | HMPKYLNIYHELAQRIQEGALPAETKLPSETELMQEFEASRGTVRKAIDALQEKGFVRKHQGKGVFVLSQ | 0.152
62 | HMPLDYNELRSISPKAARQAILQILAANKGNVSATAKLLGVSRKTVYKAMHKKASGNLDDTSRAPK | 0.13
63 | HMPLITAIELDSISARSFQFNTQSGSTYFIEGSTDLKSWDVIAEVKATDSTTTYEDHRKIYHEAYFYRVRL | -1.55
64 | HMPLITDIKIQVKNTEKVSLFVDGKYSFSLTISQLAEHKILKTNQEISAKQVAEFKKLSNLTNLYIRIVG | -0.296
65 | HMPLITLSAEIQSEQIGQRLDQTLAELFPEYSRSRLKTWIEADLVKLNNQIVNIPREKVLGGEHVEITVDI | -0.792
66 | HMPLNRFLNLPHEDKERVLLIAKKQFSTHGYDAMSLNLLLKELDISKGQFYYWFEDKADLFFTVL | 0.0543
67 | HMPLRPNQRQFIHLMVYQGLDRNEAYAQANNKVLTEENYESIRTAAAKTFYTPHVNNYYHALMEEIRDRE | -0.404
68 | HMPLSVRQRMSDILSNLKTSDFTNFADLFDPKEGRTGITVTFIAILELLREFLIEVVQSDHYQPLHVRAAS | 0.115
69 | HMPLTAASLQTYLRGVDYPASKQDLIAHARKSDAPEDAITVLEQYSEQTYRSAADVSAEFGS | -0.156
70 | HMPLTEMAVRKHLSAELAQKGYTIDPRALEILLQRTNTNLTAIANELPKLLLVAEDKQITVNEVSAM | -0.1
71 | HMPLTKKLETLFSLFPKYEKELKKKGVTRIHVWANYKEEYPDGIGRSQFIHYYSFWKKQVSP | -0.045
72 | HMPLVIIRGIEGVFSSEEKAEAIRKVTDALVSVKGENVRGFAWVVFEEVKSGDWGIGGESITAEKVIMSL | -0.39
73 | HMPMDDETWDALSLFAYKRYARENGWPLMIGAEALRDTFASYFPLDSSTWQDRSSHYLTYQDGIYTRT | -0.753
74 | HMPMDYFELFNIPRNANRETIKKILDQEYEKYRARVVSPVLEIRHEAELMLVEISKAKQVLLG | -0.223
75 | HMPMHPEDLKKLVSIEMPFGKHKGRIIADLPGNYLNWFAREGFPPGEIGRLLQLMQEIDHNGLSDLLKPLR | -0.645
